# Measured values reported in patent US20240376151A1, “STAPLED PEPTIDES AND METHODS THEREOF” (FOG PHARMACEUTICALS, INC., priority 2022, published 2024).
# Biological target: T1, RNF31 UBA domain (Homo sapiens, UniProt Q96EP0)
# T1 construct: RNF31 UBA domain protein (residues 480-639) with N-terminal Thioredoxin-TEV-6×his-yBBr-3C tags; Thioredoxin (N, cleaved yes); made in house; host or cells: E. coli BL21 (DE3) pLysS
# T1 sequence (Q96EP0 480-639): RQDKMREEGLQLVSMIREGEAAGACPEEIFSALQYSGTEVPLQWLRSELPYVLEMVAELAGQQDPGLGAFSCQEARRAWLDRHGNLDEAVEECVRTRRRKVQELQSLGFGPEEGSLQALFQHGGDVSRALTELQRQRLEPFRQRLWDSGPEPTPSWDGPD
# Test: Phage Library Screening with NGS, RNF31 UBA domain
# Type: binding
# Details: for phage screen NGS read-out at Target Concentration 10 / phage screen NGS read-out at Target Concentration 30 / phage screen NGS read-out at Target Concentration 100 / phage screen NGS read-out at Target Concentration 300: no competitor; for Phage library screen NGS readout, Target Concentration 10 / Phage library screen NGS readout, Target Concentration 30 / Phage library screen NGS readout, Target Concentration 100 / Phage library screen NGS readout, Target Concentration 300 / Phage library screen NGS readout, Target Concentration 1000: RNF31 UBA domain cluster C46; for Phage library screen NGS readout, BLANK: cluster C46
# [1] = target concentration 1000, first column
# [2] = target concentration 1000, second column
Sequence,phage screen NGS read-out at Target Concentration 10,phage screen NGS read-out at Target Concentration 30,phage screen NGS read-out at Target Concentration 100,phage screen NGS read-out at Target Concentration 300,other results
DPAREHCAAAATWCOLL (DPAREHCAAAATWCQLL),1,0,1,28,
DPAREHCDSAAAWCWVL,0,0,1,4,
DPAREHCDSAAIFCYIL,0,0,1,14,
DPARWVCELAAQNCLYR,0,1,1,1,
DPARYHCEAAAAWCELL,0,0,0,8,
DPASASCLSAAIYCSMF,,,,,"Phage library screen NGS readout, Target Concentration 10: 5; Phage library screen NGS readout, Target Concentration 30: 17; Phage library screen NGS readout, Target Concentration 100: 122; Phage library screen NGS readout, Target Concentration 300: 255; Phage library screen NGS readout, Target Concentration 1000 [1]: 247; Phage library screen NGS readout, Target Concentration 1000 [2]: 297; Phage library screen NGS readout, BLANK (column 1 of 5): 0; Phage library screen NGS readout, BLANK (column 2 of 5): 0; Phage library screen NGS readout, BLANK (column 3 of 5): 1; Phage library screen NGS readout, BLANK (column 4 of 5): 0; Phage library screen NGS readout, BLANK (column 5 of 5): 0"
DPASIHCAAAALWCDIL,0,0,1,8,
DPASIICMLAADNCLYE,0,0,0,0,
DPASMVCLSAAVYCAMH,1,15,38,77,
DPASSHCQSAAIWCYLM,1,0,6,35,
DPATLVCTMAANNCIYR,0,0,0,1,
DPATQHCLAAAMWCHLI,0,0,1,3,
DPAVQSCLSAAVYCAFR,,,,,"Phage library screen NGS readout, Target Concentration 10: 2; Phage library screen NGS readout, Target Concentration 30: 9; Phage library screen NGS readout, Target Concentration 100: 68; Phage library screen NGS readout, Target Concentration 300: 106; Phage library screen NGS readout, Target Concentration 1000 [1]: 117; Phage library screen NGS readout, Target Concentration 1000 [2]: 118; Phage library screen NGS readout, BLANK (column 1 of 5): 0; Phage library screen NGS readout, BLANK (column 2 of 5): 1; Phage library screen NGS readout, BLANK (column 3 of 5): 2; Phage library screen NGS readout, BLANK (column 4 of 5): 0; Phage library screen NGS readout, BLANK (column 5 of 5): 1"
DPAYEHCVAAAYWCYLL,1,0,11,30,
